For experiment [1], the target named is T1, GST-tagged recombinant human MCL-1 (residues 172 to 327) (human, UniProt Q07820 172-327).
T1 construct: Produced in E. coli and purified by the GST tag; also called recombinant MCL-1
The experiment can be described thus: ELISA: Alphabody (500 nM) captured by coated anti-V5 antibody; five-fold dilutions of GST-MCL-1 detected with anti-GST antibody-HRP; OD 492/630 nm.
Method: (§1) Alphabody (500 nM) was captured by immobilized anti-V5 antibody (5 microg/ml) to a microtiterplate. Binding of five-fold dilutions of Glutathione S transferase (GST)-tagged recombinant BCL-2 family proteins MCL-1 (FIG. 26A), BCL-XL (FIG. 26B) and BCL-2a (FIG. 26C) was detected using a anti-GST antibody conjugated to Horse Radish Peroxidase. Plates were read at 492 nm and 630 nm.
(§2) Maxisorp Nunc plates were coated with 100 microl anti-V5 antibody (5 microg/ml) in carbonate buffer pH 9.6 overnight at 4° C. The next day, the plates were washed 3 times with Tris Buffered Saline containing 0.05% Tween 20 (TBST) and blocked with TBS containing 0.1% BSA and 0.5% gelatin for 2 h at 37° C. […] Plates were washed 10 times with TBST and five-fold dilutions of Glutathione S transferase (GST) tagged recombinant BCL-2 family proteins (MCL-1, BCL-XL and BCL-2a) were added and further incubated for 2 h at RT while shaking. Binding of GST-tagged recombinant BCL-2 family proteins was detected using an anti-GST antibody conjugated to Horse Radish Peroxidase. Signals were developed by reacting with ortho-phenylenediamine and the reaction was stopped with 4 M H₂SO₄ when the OD reached a value between 2 and 3.

In experiment [2] the target is T1, GST-tagged recombinant human MCL-1 …. The experiment can be described thus: ELISA: Alphabody (500 nM) captured by anti-V5 antibody, five-fold dilutions of GST-MCL-1, anti-GST-HRP detection; printed as 'binding affinity'.
Method: as §1, §2
The target of experiment [3] is T2, MCL-1 in MCL-1 transfected HEK cell lysate (Santa Cruz) (UniProt Q07820 1-350, limits assumed).
T2 construct: The target was spotted as a whole cell lysate on nitrocellulose, not as purified protein; also called MCL-1 cell lysate; Mcl-1 cell lysate
T2 sequence (Q07820 whole entry): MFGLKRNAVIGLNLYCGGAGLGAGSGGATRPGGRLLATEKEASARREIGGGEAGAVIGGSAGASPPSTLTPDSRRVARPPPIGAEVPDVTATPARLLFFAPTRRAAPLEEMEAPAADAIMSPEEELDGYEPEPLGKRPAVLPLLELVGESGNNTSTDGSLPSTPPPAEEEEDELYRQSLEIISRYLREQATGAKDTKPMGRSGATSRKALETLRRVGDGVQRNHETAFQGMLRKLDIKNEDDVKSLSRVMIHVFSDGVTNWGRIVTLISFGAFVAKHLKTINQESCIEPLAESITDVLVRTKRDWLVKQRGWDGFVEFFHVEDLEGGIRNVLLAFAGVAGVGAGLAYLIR
Briefly: dot blot: MCL-1 transfected HEK cell lysate spotted on nitrocellulose, incubated with Alphabody, detected with anti-His antibody-HRP.

Experiment [4] has as its target T3, GST-tagged recombinant human BCL-XL with a C-terminal deletion of 24 amino acids (human, UniProt Q07817 1-209).
T3 construct: Produced in E. coli and purified by the GST tag; not shown: Glutathione S Transferase (GST) tag at the N-terminus
The experiment can be described thus: ELISA: Alphabody (500 nM) captured by coated anti-V5 antibody; five-fold dilutions of GST-BCL-XL detected with anti-GST antibody-HRP; OD 492/630 nm.

The target in experiment [5] is T3, GST-tagged recombinant human BCL-XL …. Briefly: ELISA: Alphabody (500 nM) captured by coated anti-V5 antibody; five-fold dilutions of GST-tagged protein detected with anti-GST antibody-HRP; OD 492/630 nm.
Method: (§3) Alphabody (500 nM) was captured by immobilized anti-V5 antibody (5 microg/ml) to a microtiterplate. Binding of five-fold dilutions of Glutathione S transferase (GST)-tagged recombinant BCL-2 family proteins MCL-1, BCL-XL and BCL-2a was detected using a anti-GST antibody conjugated to Horse Radish Peroxidase. Plates were read at 492 nm and 630 nm.
as §2
Experiment [6] addresses T1, GST-tagged recombinant human MCL-1 …. The experiment is described as above.
Method: as §3, §2
For experiment [7], the target named is T4, GST-tagged recombinant human BCL-2 isoform alpha (BCL-2a) with a C-terminal deletion of 32 amino acids (human, UniProt P10415 1-207).
T4 construct: Produced in E. coli and purified by the GST tag; not shown: Glutathione S Transferase (GST) tag at the N-terminus
T4 sequence (P10415 1-207, stated change not applied, form in doubt): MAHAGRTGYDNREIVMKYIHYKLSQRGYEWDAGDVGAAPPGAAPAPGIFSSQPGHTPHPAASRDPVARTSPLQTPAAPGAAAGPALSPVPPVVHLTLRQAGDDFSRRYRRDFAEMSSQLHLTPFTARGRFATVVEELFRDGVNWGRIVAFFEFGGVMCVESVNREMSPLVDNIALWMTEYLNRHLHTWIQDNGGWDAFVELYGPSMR
The experiment can be described thus: ELISA: Alphabody (500 nM) captured by anti-V5 antibody, five-fold dilutions of GST-BCL-2a, anti-GST-HRP detection; printed as 'binding affinity'.

Experiment [8] concerns the target T3, GST-tagged recombinant human BCL-XL …. Briefly: ELISA: Alphabody (500 nM) captured by anti-V5 antibody, five-fold dilutions of GST-BCL-XL, anti-GST-HRP detection; printed as 'binding affinity'.
Method: as §3, §2

T3 sequence (Q07817 1-209, stated change not applied, form in doubt): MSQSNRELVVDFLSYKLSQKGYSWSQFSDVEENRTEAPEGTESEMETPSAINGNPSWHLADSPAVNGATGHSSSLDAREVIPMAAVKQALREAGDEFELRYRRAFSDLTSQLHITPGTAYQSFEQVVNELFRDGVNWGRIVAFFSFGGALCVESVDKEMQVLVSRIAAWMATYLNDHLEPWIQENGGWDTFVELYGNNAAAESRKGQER
T1 sequence (Q07820 172-327 limits assumed): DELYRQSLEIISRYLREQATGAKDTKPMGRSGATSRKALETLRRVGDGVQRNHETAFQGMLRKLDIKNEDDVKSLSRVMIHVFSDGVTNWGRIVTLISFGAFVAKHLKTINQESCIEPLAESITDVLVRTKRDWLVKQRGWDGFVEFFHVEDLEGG

B1: AB1_A2aF_hiKR3-V5 (designed binder)
chain: MSIQQIQKQFKRIQKQIKRIEKQIKRMTGGSGGSGGMSIEEITKQIAAIQLRIVGDQVQIYAMTGGSGGGSGGGSGGGSGGSIEEIKKSIRAIQKEIKKIQKKIKKMTPHHHHHHHHHHGKPIPNPLLGLDST
notes: Cationized MCL-1 Alphabody with C-terminal His-tag and V5 tag
As to B1, the concentration for a half-maximal effect (EC50 (read off the curve)) in experiment [1] is roughly 1 nM. The Kd in experiment [2] stood at 1 nM.

B2: tat-013 Alphabody (designed binder)
chain: YGRKKRRQRRRMSIEEIQKQIAAIQKQIAAIQKQIYAMTGGSGGGSGGGSGGGSGMSIEEIQKQIAAIQKQIAAIQKQIYAMTGGSGGGSGGGSGGGSGMSIEEIQKQIAAIQKQIAAIQKQIYAMTP
notes: also called tat-tagged control Alphabody scAB013
Take B2: the binding result in experiment [3] is on record as “no binding (tested: 10 uM)”.

B3: AB1_pan_hiKR3-V5 (designed binder)
chain: MSIEEIQKQFKRIQKQIKRIAKQIKRMTGGSGGSGGMSIEEIAAQIAAIQLRIIGDQFNIYYMTGSGGGGSGGSIEEIKKSIRAIQKEIKKIQKKIKKMTPHHHHHHHHHHGKPIPNPLLGLDST
notes: Cationized Alphabody with C-terminal His-tag and V5 tag
Turning to B3, the “EC50 (read off the curve)” value is roughly 4 nM in experiment [4], roughly 2 nM in experiment [1], roughly 4 nM in experiment [5] and roughly 2 nM in experiment [6]. In addition, the Kd is roughly 1.9 nM in experiment [2], roughly 18.7 nM in experiment [7] and roughly 4.5 nM in experiment [8].

B4: MB23_hiR-V5 (designed binder)
chain: MSIEQIQKEITTIQEVIAAIQKYIYTMTGGSGGSGGMSIQQIQAAIRRIQRAIRRIQRAIRRMTGSGGGGSGMSIEEIQKQIAAIQEQIVAIYKQIMAMASHHHHHHGKPIPNPLLGLDST
notes: Cationized Alphabody directed against IL-23, used as the negative control; also called control Alphabody MB23_hiR-V5; cationized MB23
Take B4: the binding result in experiment [1] is listed as “no binding (tested: 200 nM)”.
